We go through two molecules from patent US20170080102A1.

Assay [1] deals with CD33 protein (human), on primary patient AML cells and AML cell lines (human) (UniProt P20138). In words: cell-based or functional assay.
The target is the same in assay [2]. In words: cell-based or functional assay. The source holds these as a separate data set.

Some results are limits rather than exact numbers.

Sequence of UniProt P20138 (P20138 18-364): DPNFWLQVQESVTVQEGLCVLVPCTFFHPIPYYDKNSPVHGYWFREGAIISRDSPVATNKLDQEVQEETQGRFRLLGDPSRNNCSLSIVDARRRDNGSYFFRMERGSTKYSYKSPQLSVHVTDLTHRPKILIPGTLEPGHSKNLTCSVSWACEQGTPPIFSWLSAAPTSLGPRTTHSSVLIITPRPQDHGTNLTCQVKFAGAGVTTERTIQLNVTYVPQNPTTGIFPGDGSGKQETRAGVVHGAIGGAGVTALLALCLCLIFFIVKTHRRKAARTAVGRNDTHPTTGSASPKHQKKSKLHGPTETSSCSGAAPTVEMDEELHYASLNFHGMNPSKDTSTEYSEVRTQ

“non-binding chimeric IgG1-DGN462 conjugate (antibody)” yielded an IC50, cytotoxicity against primary patient AML cells in assay [1] of over 1000 pM.

B1: IMGN779 (anti-huCD33 antibody huMy9-6 conjugated to DGN462 via a cleavable disulfide sulfo-SPDB linker) (antibody, from a related filing, V domains shown)
VH: QVQLQQPGAEVVKPGASVKMSCKASGYTFTSYYIHWIKQTPGQGLEWVGVIYPGNDDISYNQKFQGKATLTADKSSTTAYMQLSSLTSEDSAVYYCAREVRLRYFDVWGQGTTVTVSS
VL: EIVLTQSPGSLAVSPGERVTMSCKSSQSVFFSSSQKNYLAWYQQIPGQSPRLLIYWASTRESGVPDRFTGSGSGTDFTLTISSVQPEDLAIYYCHQYLSSRTFGQGTKLEIKR
In assay [2], B1 registered an IC50, cytotoxicity on MOLM-13 FLT3-ITD AML cell line (WST-8 assay) of 5 pM; an IC50, cytotoxicity on MV4-11 FLT3-ITD AML cell line (WST-8 assay) of 2 pM; an IC50, cytotoxicity on a panel of 21 AML cell lines (WST-8 assay) of 2 to 3000 pM; an IC50, cytotoxicity on a panel of 21 AML cell lines (WST-8 assay), median of 70 pM. Besides, in assay [2], the IC50, in vitro cytotoxicity against primary patient AML cells fell in the range of 10 to 1500 pM.
